In patent US20260049134A1 (UNIVERSITY OF FLORIDA RESEARCH FOUNDATION, published 2026) one finds Kd, koff and kon data, which are given here for five molecules.

This assay addresses T1, PTPRG-Fc (ECD of human PTPRG, aa 20-736, fused to human Fc gamma 1) (human, UniProt P23470 20-736).
T1 construct: Made in-house in Expi293 cells; Used in ELISA and SPR; also called recombinant PTPRG-Fc; PTRPG; not shown: human IgG1 Fc (Fc gamma 1) after the hinge
T1 sequence: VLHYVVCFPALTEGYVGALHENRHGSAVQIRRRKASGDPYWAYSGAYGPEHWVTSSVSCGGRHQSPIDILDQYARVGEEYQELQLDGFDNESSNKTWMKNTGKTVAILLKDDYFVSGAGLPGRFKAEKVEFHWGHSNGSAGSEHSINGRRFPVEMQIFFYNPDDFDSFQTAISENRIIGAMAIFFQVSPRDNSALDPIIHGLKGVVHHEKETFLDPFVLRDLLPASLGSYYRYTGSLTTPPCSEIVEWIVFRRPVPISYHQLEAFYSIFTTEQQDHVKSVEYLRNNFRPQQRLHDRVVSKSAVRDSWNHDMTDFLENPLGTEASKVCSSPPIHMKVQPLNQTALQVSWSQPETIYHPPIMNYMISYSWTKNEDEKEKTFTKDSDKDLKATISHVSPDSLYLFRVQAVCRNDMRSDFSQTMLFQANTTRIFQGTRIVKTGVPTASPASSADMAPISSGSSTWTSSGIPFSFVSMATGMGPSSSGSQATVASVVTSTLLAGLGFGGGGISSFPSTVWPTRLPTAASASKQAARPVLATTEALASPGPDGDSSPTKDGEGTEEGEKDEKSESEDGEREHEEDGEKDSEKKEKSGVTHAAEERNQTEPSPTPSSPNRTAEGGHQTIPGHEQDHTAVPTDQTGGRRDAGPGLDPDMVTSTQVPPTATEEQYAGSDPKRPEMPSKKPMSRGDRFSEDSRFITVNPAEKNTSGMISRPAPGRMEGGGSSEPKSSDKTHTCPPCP
Briefly: SPR, Biacore X100; PTPRG-Fc captured by anti-human Fc on CM5, Fab injected; mean of triplicates (SD). The method, then:
A Biacore X100 instrument was used to determine the monovalent affinities of the C-1 cluster of Fabs for recombinant PTPRG-Fc, as previously described. […] Each experiment was repeated in triplicate. Rate constants (kₒₙ, koff, and Kd) were calculated using the Biacore evaluation software (Cytiva).
In general terms: Surface plasmon resonance follows binding to a sensor surface in real time, without labels.

Residue numbers refer to the chain shown, from its start.

B1: HW-25 Fab (chimeric rabbit/human, His-tagged) (Fab, V domains shown)
VH: QSLEESGGRLVTPGTPLTLTCTVSGFSLSSYAMGWVRQAPGKGLEWIGIIDSRGSTYYATWAKGRFTISKTSTTVDLKITSPTTEDTATYFCAREDSYYYDSFNLWGPGTLVTVSS
VL: SFVLTQPASVQVNLGQTVSLTCTADTLSRRYASWYQQKPGQAPVLLIYRDTSRPSGVPDRFSGSSSGNTATLTISGAQAGDEADYYCATSDGSGSSYQCVFGGGTQLTVT
notes: Monovalent Fab: rbVH-huCH1 and rbVL-huCL, His-tagged, made in E. coli from pET11a
As for B1, binding was put at a Kd of 0.65 nM; the koff – broadly, a measure of how fast the partners let go of each other – is 0.000367 s⁻¹; the kon (usually the second-order rate constant of association) worked out at 566000 M⁻¹ s⁻¹.

B2: HW-70 Fab (chimeric rabbit/human, His-tagged) (Fab, V domains shown)
VH: QSLEESGGRLVTPGTPLTLTCTVSGFSLSSNAMSWVRQAPGKGLEWIGTIDGYGYTYYASWAKGRFTVSKTSTTVDLKITSPTTEDTATYFCAREIYLGSNFWGPGTLVTISS
VL: B1 VL with S90A, C99F
notes: as for B1
Turning to B2, binding was put at a Kd of 19.1 nM, the koff was 0.0153 s⁻¹ and the kon turned out to be 826000 M⁻¹ s⁻¹.

B3: HW-42 Fab (chimeric rabbit/human, His-tagged) (Fab, V domains shown)
VH: QSVKESEGGLFKPADTLTLTCTVSGFSLSSNEISWVRQAPGEGLEYIGIIDTGGRAYYAVWARSRSTITRNTNLNTVTLKMTSLTAADTATYFCARGGVDTEWYAFSSWGPGTLVTVPS
VL: B1 VL with Y48F, N68D, S96N, C99Y
notes: as for B1
On to B3, for which binding was characterised by a dissociation constant (Kd) of 28.9 nM, the koff amounted to 0.00429 s⁻¹ and the kon came to 149000 M⁻¹ s⁻¹.

B4: HW-17 Fab (chimeric rabbit/human, His-tagged) (Fab, V domains shown)
VH: QSLGESRGRLVTPDETLTLTCTVSGIDLSSNAMSWVRQAPGEGLEWIGTINTGGRAYYASWAKGRFTISRTSTTVDLKMTSLTTEDTATYFCARERYSDGRAYDIWGPGTLVTISS
VL: B1 VL with R49T, T51S, S52N, V57I, S90D, S96I, C99Y
notes: as for B1
For the molecule B4, the dissociation constant Kd (in general, the constant that tells how readily two partners part at equilibrium) was 9.34 nM; the koff worked out at 0.00158 s⁻¹; the kon came out at 169000 M⁻¹ s⁻¹.

B5: HW-1 Fab (chimeric rabbit/human, His-tagged) (Fab, V domains shown)
VH: QSLEESGGGLFKPTDTLTLTCTASGFSLGSSYAISWVRQAPGKELEWIGTIDSGRAYYARWAKSRSTITRNTNENTVTLKMTSLTAADTATYFCARDLIPTYSQDIWGPGTLVTISS
VL: B1 VL with S95N, C99Y
notes: as for B1
For B5, the Kd was 2.54 nM, the koff was 0.000482 s⁻¹ and the kon was found to be 195000 M⁻¹ s⁻¹.
